Laboratory results reported in patent US20220275043A1.

How the values were obtained:
[1] = biological target: single-chain SIINFEKL-H2Kb expressed on K562 cells (mouse); experiment: flow cytometry, purified OT1-TCR-Igg at 20 nM on K562 cells expressing single-chain SIINFEKL-H2Kb
[2] = biological target: single-chain SIINFEKL-H2Kb expressed on K562 cells (mouse); experiment: flow cytometry dot plot (APC-A against Pacific Blue-A) of K562 cells expressing single-chain SIINFEKL-H2Kb, stained with raw supernatant; number printed in the gate 'TCR-Igg pos stain' (same gate in the Negative ctl panel: 1.15)

OT1-TCR-Igg (OTI TCRα-LZL-mIgG HC + OTI TCRβ-LZR-mIgG LC, two separate plasmids)
percent of cells stained at 20 nM [1]: 100% | TCR-Igg pos stain [2]: 39.3
